Where a chain is given by its changes, count along the chain named. Values belong to the binder of their own block, whether it stands above or below them.
Experiments:
[1] = target: IgG1 subclass in human serum; experiment: batch adsorption from the serum of a healthy subject, peptide on Thiopropyl Sepharose 6B (0.8 mg/ml), supernatant by immune diffusion (SRID)
[2] = target: IgG2 subclass in human serum; experiment: as above
[3] = target: IgG3 subclass in human serum; experiment: as above
[4] = target: IgG4 subclass in human serum; experiment: as above
IgG in human serum [5] = experiment: batch adsorption from the serum of a healthy subject, peptide on Thiopropyl Sepharose 6B (0.8 mg/ml), 37 °C 2 h, supernatant by N-Assay TIA kit
IgM in human serum = experiment: as above
[6] = target: circulating immune complexes in the serum of a patient suffering from rheumatism; experiment: batch adsorption from the serum of a patient suffering from rheumatism, peptide on Thiopropyl Sepharose 6B (0.8 mg/ml), 37 °C 2 h, supernatant by C1q-CIC kit
[7] = target: thermally coagulated immunoglobulin complexes; experiment: batch adsorption from healthy human serum with 20 µg/ml thermally coagulated complexes, peptide on Thiopropyl Sepharose 6B (0.8 mg/ml), 37 °C 2 h, supernatant by C1q-CIC kit
IgG in human serum [8] = experiment: batch adsorption from human serum with 20 µg/ml Model IC, peptide on GC700m gel (4.0 mg/ml), not sterilised, N-Assay TIA kit
[9] = target: thermally coagulated immunoglobulin complexes; experiment: batch adsorption from human serum with 20 µg/ml Model IC, peptide on GC700m gel (4.0 mg/ml), not sterilised, C1q-CIC enzyme immunoassay
IgG in human serum [10] = experiment: batch adsorption from human serum with 20 µg/ml Model IC, peptide on GC700m gel (2.6 mg/ml), not sterilised, N-Assay TIA kit
[11] = target: thermally coagulated immunoglobulin complexes; experiment: batch adsorption from human serum with 20 µg/ml Model IC, peptide on GC700m gel (2.6 mg/ml), not sterilised, C1q-CIC enzyme immunoassay
IgG in human serum [12] = experiment: batch adsorption from human serum with 20 µg/ml Model IC, peptide on GCL2000m gel (2.6 mg/ml), not sterilised, N-Assay TIA kit
[13] = target: thermally coagulated immunoglobulin complexes; experiment: batch adsorption from human serum with 20 µg/ml Model IC, peptide on GCL2000m gel (2.6 mg/ml), not sterilised, C1q-CIC enzyme immunoassay
IgG in human serum [14] = experiment: batch adsorption from human serum with 20 µg/ml Model IC, peptide on GCL2000m gel (2.1 mg/ml), 37 °C 2 h, not sterilised, N-Assay TIA kit
[15] = target: thermally coagulated immunoglobulin complexes; experiment: batch adsorption from human serum with 20 µg/ml Model IC, peptide on GCL2000m gel (2.1 mg/ml), 37 °C 2 h, not sterilised, C1q-CIC enzyme immunoassay
IgG in human serum [16] = experiment: batch adsorption from human serum with 20 µg/ml Model IC, peptide on AF-Torecyl Toyopearl 650 (3.6 mg/ml), not sterilised, N-Assay TIA kit
[17] = target: thermally coagulated immunoglobulin complexes; experiment: batch adsorption from human serum with 20 µg/ml Model IC, peptide on AF-Torecyl Toyopearl 650 (3.6 mg/ml), not sterilised, C1q-CIC enzyme immunoassay
IgG in human serum [18] = experiment: batch adsorption from human serum with 20 µg/ml Model IC, peptide on GCL2000m gel (2.5 mg/ml), not sterilised, N-Assay TIA kit
[19] = target: thermally coagulated immunoglobulin complexes; experiment: batch adsorption from human serum with 20 µg/ml Model IC, peptide on GCL2000m gel (2.5 mg/ml), not sterilised, C1q-CIC enzyme immunoassay

adsorption ratio of IgG subclasses (%) [1]: 93.2% | adsorption ratio of IgG subclasses (%) [2]: 78.9% | adsorption ratio of IgG subclasses (%) [3]: 63.2% | adsorption ratio of IgG subclasses (%) [4]: 65.7% | adsorption ratio of immunoglobulins (%) (IgG in human serum [5]): 83.4% | adsorption ratio of immunoglobulins (%) (IgM in human serum): 2.7% | adsorption ratio of immune complexes (%) [6]: 29.3% | adsorption ratio of thermally coagulated complexes (%) [7]: 41.7%
B1: peptide having a sequence consisting of 57 residues of domain C3 of protein G with cysteine added to an N-terminus (peptide)
peptide: CTTYKLVINGKTLKGETTTKAVDAETAEKAFKQYANDNGVDGVWTYDDATKTFTVTE

IgG adsorption ratio (%) (IgG in human serum [8]): 65% | IC adsorption ratio (%) [9]: 30%
B2: MG56 peptide (peptide)
peptide: B1 peptide with C1M

IgG adsorption ratio (%) (IgG in human serum [16]): 75% | IC adsorption ratio (%) [17]: 35%
B6: MK3-7M peptide (peptide)
peptide: MKKKTTYKLILNGKTLKGETTTKAVDAATAEKVFKQYANDNGVDGEWTYDPATKTFTVTE

IgG adsorption ratio (%) (IgG in human serum [18]): 70% | IC adsorption ratio (%) [19]: 30%
B7: MK3G56 peptide (peptide)
peptide: B6 peptide with I10V, L11I, A28E, V33A, E46V, P51D

IgG adsorption ratio (%) (IgG in human serum [8]): 90% | IC adsorption ratio (%) [9]: 65%
B8: MP47C peptide (peptide)
peptide: MTTYKLVINGKTLKGETTTKAVDAETAEKAFKQYANDNGVDGVWTYDPATKTFTVTEC

Second part, the binder before the results:

B3: MP47 peptide (peptide)
peptide: B1 peptide with C1M, D48P
IgG adsorption ratio (%) (IgG in human serum [10]): 60% | IC adsorption ratio (%) [11]: 35%

B4: MP47K3 peptide (peptide)
peptide: MTTYKLVINGKTLKGETTTKAVDAETAEKAFKQYANDNGVDGVWTYDPATKTFTVTEKKK
IgG adsorption ratio (%) (IgG in human serum [12]): 70% | IC adsorption ratio (%) [13]: 35%

B5: MK3P47 peptide (peptide)
peptide: B6 peptide with I10V, L11I, A28E, V33A, E46V
IgG adsorption ratio (%) (IgG in human serum [14]): 85% | IC adsorption ratio (%) [15]: 35%

From US6133431
